Reference: article PMC5500549, “DNA binding strength increases the processivity and activity of a Y-Family DNA polymerase” (Scientific Reports, 2017)

B1: Dbh (WTDbh) (Sulfolobus acidocaldarius DSM 639) (protein)
chain: MIVIFVDFDYFFAQVEEVLNPQYKGKPLVVCVYSGRTKTSGAVATANYEARKLGVKAGMPIIKAMQIAPSAIYVPMRKPIYEAFSNRIMNLLNKHADKIEVASIDEAYLDVTNKVEGNFENGIELARKIKQEILEKEKITVTVGVAPNKILAKIIADKSKPNGLGVIRPTEVQDFLNELDIDEIPGIGSVLARRLNELGIQKLRDILSKNYNELEKITGKAKALYLLKLAQNKYSEPVENKSKIPHGRYLTLPYNTRDVKVILPYLKKAINEAYNKVNGIPMRITVIAIMEDLDILSKGKKFKHGISIDNAYKVAEDLLRELLVRDKRRNVRRIGVKLDNIIINKTNLSDFFDI
notes: synthetic gene, 6xHis tag (C-terminal by gene design, N-terminal by purification), expressed in E. coli BL21(DE3), Ni-NTA and Mono-S

Tests used:
[1] = tested on: SdbhA221S (Sulfolobus acidocaldarius (Dbh); Sso7d source organism not stated); test: fluorescence titration (2AP); conditions: 10 mM Mg2+; 2-aminopurine at the primer terminus; 50 mM Tris acetate pH 7.5, 50 mM sodium acetate, 10 mM magnesium acetate, 5 mM DTT, 0.05% Tween 20, 25 °C; 100 nM 2AP-P/T, 0-1000 nM pol
[2] = tested on: Sdbh (Sso7d-Dbh fusion) (Sulfolobus acidocaldarius (Dbh); Sso7d source organism not stated); test: fluorescence titration (2AP); conditions: 2-aminopurine at the primer terminus; 50 mM Tris acetate pH 7.5, 50 mM sodium acetate, 10 mM magnesium acetate, 5 mM DTT, 0.05% Tween 20, 25 °C; 100 nM 2AP-P/T, 0-1000 nM pol
[3] = tested on: SdbhT37F (Sulfolobus acidocaldarius (Dbh); Sso7d source organism not stated); test: fluorescence titration (2AP); conditions: 2-aminopurine at the primer terminus; 50 mM Tris acetate pH 7.5, 50 mM sodium acetate, 10 mM magnesium acetate, 5 mM DTT, 0.05% Tween 20, 25 °C; 100 nM 2AP-P/T, 0-1000 nM pol
[4] = tested on: SdbhY249I (Sulfolobus acidocaldarius (Dbh); Sso7d source organism not stated); test: fluorescence titration (2AP); conditions: 2-aminopurine at the primer terminus; 50 mM Tris acetate pH 7.5, 50 mM sodium acetate, 10 mM magnesium acetate, 5 mM DTT, 0.05% Tween 20, 25 °C; 100 nM 2AP-P/T, 0-1000 nM pol
[5] = tested on: SdbhL250V (Sulfolobus acidocaldarius (Dbh); Sso7d source organism not stated); test: fluorescence titration (2AP); conditions: 2-aminopurine at the primer terminus; 50 mM Tris acetate pH 7.5, 50 mM sodium acetate, 10 mM magnesium acetate, 5 mM DTT, 0.05% Tween 20, 25 °C; 100 nM 2AP-P/T, 0-1000 nM pol
[6] = tested on: SdbhM76I (Sulfolobus acidocaldarius (Dbh); Sso7d source organism not stated); test: fluorescence titration (2AP); conditions: 2-aminopurine at the primer terminus; 50 mM Tris acetate pH 7.5, 50 mM sodium acetate, 10 mM magnesium acetate, 5 mM DTT, 0.05% Tween 20, 25 °C; 100 nM 2AP-P/T, 0-1000 nM pol
[7] = tested on: SdbhI62V (Sulfolobus acidocaldarius (Dbh); Sso7d source organism not stated); test: fluorescence titration (2AP); conditions: 2-aminopurine at the primer terminus; 50 mM Tris acetate pH 7.5, 50 mM sodium acetate, 10 mM magnesium acetate, 5 mM DTT, 0.05% Tween 20, 25 °C; 100 nM 2AP-P/T, 0-1000 nM pol
[8] = tested on: SdbhKSKIP241-245RVRKS (Sulfolobus acidocaldarius (Dbh); Sso7d source organism not stated); test: fluorescence titration (2AP); conditions: 2-aminopurine at the primer terminus; 50 mM Tris acetate pH 7.5, 50 mM sodium acetate, 10 mM magnesium acetate, 5 mM DTT, 0.05% Tween 20, 25 °C; 100 nM 2AP-P/T, 0-1000 nM pol
[9] = tested on: Dbh (WT) (Sulfolobus acidocaldarius); test: fluorescence titration (2AP); conditions: 2-aminopurine at the primer terminus; 50 mM Tris acetate pH 7.5, 50 mM sodium acetate, 10 mM magnesium acetate, 5 mM DTT, 0.05% Tween 20, 25 °C; 100 nM 2AP-P/T, 0-1000 nM pol
[10] = tested on: SdbhK337R (Sulfolobus acidocaldarius (Dbh); Sso7d source organism not stated); test: fluorescence titration (2AP); conditions: 2-aminopurine at the primer terminus; 50 mM Tris acetate pH 7.5, 50 mM sodium acetate, 10 mM magnesium acetate, 5 mM DTT, 0.05% Tween 20, 25 °C; 100 nM 2AP-P/T, 0-1000 nM pol
[11] = substrate: Nc1ncnc2c1ncn2[C@H]1C[C@H](O)[C@@H](COP(=O)(O)OP(=O)(O)OP(=O)(O)O)O1; test: steady-state single-nucleotide insertion, FAM-primer gel assay; format: biochemical, Sulfolobus acidocaldarius; conditions: opposite template G (incorrect, misinsertion), 1.0 μM primer-template, 20 nM pol, 5 mM MgCl2, 100 mM KCl, pH 7.5, 37 °C, apparent Km
Source text: (§1) steady-state single-nucleotide insertion, FAM-primer gel assay on Dbh (WTDbh)

[12] = substrate: Nc1ccn([C@H]2C[C@H](O)[C@@H](COP(=O)(O)OP(=O)(O)OP(=O)(O)O)O2)c(=O)n1; test: as above; format: biochemical, Sulfolobus acidocaldarius; conditions: opposite template G (correct), 1.0 μM primer-template, 20 nM pol, 5 mM MgCl2, 100 mM KCl, pH 7.5, 37 °C, apparent Km
Source text: as §1

Molecule	Kd [1] [µM]	Kd [2] [µM]	Kd [3] [µM]	Kd [4] [µM]	Kd [5] [µM]	Kd [6] [µM]	Kd [7] [µM]	Kd [8] [µM]	Kd [9] [µM]	Kd [10] [µM]	Km [11] [µM]	Vmax [11] [µM/min]	Km [12] [µM]	Vmax [12] [µM/min]
2AP-P/T primer-template	0.0475	0.0512	0.0497	0.0562	0.0504	0.0428	0.0498	0.0348	0.0548	0.0555				
B1											215.2 ± 18.7	1.9e-05	88.2 ± 12.0	0.001
